The data set in a line: yeast display, Sf9 membrane polyspecificity reagent, FACS + sequencing; frameworks hold sequencing errors. Put shortly:
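Using colony PCR, genes from sorted yeast display clones were amplified, then sequenced on MiSeq at 2 × 250 and filtered by CDR length. The clones had been stained with 10% biotinylated, detergent-solubilized Sf9 membrane reagent for 1 hour at 4 °C and sorted by FACS into low and high (top ~1%) gates on anti-HA and streptavidin fluorescence. Polyreactivity labels come from the gate of origin.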
Take “QVQLVESGGGLVQAGGSLRLSCAASGRIFYYNAMGWYRQAPGKEWELVAAISSSGTTYYADSVKGRFTISRDNAKNTVYLQMNSLKPEDTAVYYCAAGSYWSPYGQSFWPKYDYWGQGTQVTVSS”: the “polyreactivity (PSR sort gate)” value is “high polyreactivity”.

Turning to “QVQLVESGGGLVQAGGSLRLSCAASGRIFYYNGMGWSRQAPGKERELVAAITANGGSTYYADSVKGRFTISRDNAKNTVYLQMNSLKPDDTAVYYCAARYRFGGIRRYNYWGQGTQVTVSS”, the “polyreactivity (PSR sort gate)” value was “high polyreactivity”.

In the case of “QVQLVESGGGLVQAGGSLRLSCAASGRIFYYNGMGWYRQAPGKERELVAAIRWSGGSTRYADSVKGRFTISRDNAKNTVYLQMNSLKPEDTAVYYCAADGFYRWYPYKRYQFYYWGQGTQVTVSS”, the “polyreactivity (PSR sort gate)” value is listed as “high polyreactivity”.

Regarding “QVQLVESGGGLVQAGGSLRLSCAASGRIFYYNTMGWYREAPGTERELVAAISSGAGRTYYADSVKGRFTISRDNAMNTVYLQMNSLKPEDTAVYYCAARFYVIKWYDYWGQGTQVTVSS”, the “polyreactivity (PSR sort gate)” value is “high polyreactivity”.

Turning to “QVQLVESGGGLVQAGGSLRLSCAASGRIFYYNTMGWYRQAPGKERELVAAISSTASTTYADSVKGRFTISRDNAKNTDYIQMNSLKPEDTAVYYCAADHRYHWANPRGYYYWGQGTQVTVSS”, the “polyreactivity (PSR sort gate)” value is “high polyreactivity”.

In the case of “QVQLVESGGGLVQAGGSLRLSCAASGRIFYYNTMGWYRQSPGKERELVAAISSTASTTYADSVKGRFTISRENAKNTVYLKMNILKPEDTAVYYCAAAYSVRGRTYDSWGQGTQVTVSS”, the “polyreactivity (PSR sort gate)” value is reported as “high polyreactivity”.

“QVQLVESGGGLVQAGGSLRLSCAASGRIFYYSAMGWSRQAPGIERELVAAITRRGGSTYYADSVKGRVTISRDNAKNTVFLQMNSLKPEDTEVYYSAKPDRTCWLDGDYWGQGSQVTVSS”: the “polyreactivity (PSR sort gate)” value is “low polyreactivity”.

For “QVQLVESGGGLVQAGGSLRLSCAASGRIFYYYAMGWSRQAPGKERELVAGISYSGGRTYYADSVKGRFTISRDNAKNTVYLQMNSLKPEDTAVYYCAAAYRGANYGYGFDYWGQGTQVTVSS”, the “polyreactivity (PSR sort gate)” value is “high polyreactivity”.

With “QVQLVESGGGLVQAGGSLRLSCAASGRIFYYYAMGWYRPAPGKERELVAAITSGGRTYYADSVKGRFTISRDNAKNTVYLQMNSLKPEDTAVYYCAAERTYTYLGPGYEYWGQGTQVTVSS”, the “polyreactivity (PSR sort gate)” value is listed as “low polyreactivity”.

As to “QVQLVESGGGLVQAGGSLRLSCAASGRIFYYYAMGWYRQAPGKERELFADITWSGGSTYYADSVKGRFTISRDNAKNTVYLQMNSLKPEDTAVNYCNAVYFNYLLEYDYWGQGTQVTVSS”, the “polyreactivity (PSR sort gate)” value was “high polyreactivity”.

For “QVQLVESGGGLVQAGGSLRLSCAASGRIFYYYAMGWYRQAPGKERELVAAITRRGGSTYYADSVKGRFTISRDNAKNTVYLQLNSLKPEDTAVYYCAKPDRTGWLDGDYWGQGTQVTVSS”, the “polyreactivity (PSR sort gate)” value is listed as “low polyreactivity”.

Regarding “QVQLVESGGGLVQAGGSLRLSCAASGRIFYYYAMGWYRQAPGKERELVAASSTYYADSVKGRFTISRDNAKNTVYLQMNSQKPEDTAVYYCAAVTFSYDGYDYWGPGTQVTVSS”, the “polyreactivity (PSR sort gate)” value was “low polyreactivity”.

Turning to “QVQLVESGGGLVQAGGSLRLSCAASGRIFYYYDMGWYRQAPGKERELVAGINDDSSTYYADSVKGRFTISRDNAKNTVYLQMNSLKPEDTAVYYCNAGPSWYPSWYYYWGQGTQVTVSS”, the “polyreactivity (PSR sort gate)” value is on record as “low polyreactivity”.

As for “QVQLVESGGGLVQAGGSLRLSCAASGRIFYYYPMGWYRQAPGKERELVADITRGGGTYYADSVKGRFTISRDNAKNTVYLQMNSLKPEDTAVYYCAKGGPPESHHPYRYRFDYWGQGTQVTVSS”, the “polyreactivity (PSR sort gate)” value is “low polyreactivity”.

Take “QVQLVESGGGLVQAGGSLRLSCAASGRIFYYYTMGWYRQAPGKERELVADISRGGSTYYADSVKGRFTISRDNAKNTVYLQMNSLKPEDTAVYYCNAVTRIQTSYPSNWGMMDYWGQGTQVTVSS”: the “polyreactivity (PSR sort gate)” value is given as “low polyreactivity”.

Take “QVQLVESGGGLVQAGGSLRLSCAASGRIFYYYTMGWYRQAPGKERELVAGISRSGDRTYYADSVKGRFTISRDNGKNTVYLQMNSLKPEDTAVYYFAALYGYVHRKAFYYWGQGTQVTVSS”: the “polyreactivity (PSR sort gate)” value is reported as “high polyreactivity”.

For “QVQLVESGGGLVQAGGSLRLSCAASGRIGKYAMGWYRQAPGKERELVATISSTGTTNYADSVKGRFTISRDNAKNTVYLKMNSLKPEDTAVYYCAARWEYVGYRRRYYRFDYWGQGTQVTVSS”, the “polyreactivity (PSR sort gate)” value is reported as “high polyreactivity”.

On to “QVQLVESGGGLVQAGGSLRLSCAASGRIICFYPMGWYRQAPGKEREFVAAIRWSGGTTYYADSVKGRFTISRDNAKNNVYLQMNSLKPEDTAVYYCAAGRAVGHSLYSRGYDYWGQGTQVTVSS”, for which the “polyreactivity (PSR sort gate)” value was “low polyreactivity”.

As to “QVQLVESGGGLVQAGGSLRLSCAASGRIIDRNAMGWYRQAPGKERELVAAISSSGSTNYADSVKGRFTISRDNAKNTVYLQLNSLKPEDTAVYYCAARWRSVLASGTRPVSFDYWGQGTQVTVSS”, the “polyreactivity (PSR sort gate)” value was “low polyreactivity”.

For the sequence “QVQLVESGGGLVQAGGSLRLSCAASGRIIGFNAMGWYRQAPGKERELVASIRTTGGSTRYADSVKGRFTISRDNAKNTVYLQMNSLKPEDTAVYDCAARWGKTLWQYNYWGQGTQVTVSS”, the “polyreactivity (PSR sort gate)” value is “high polyreactivity”.

Take “QVQLVESGGGLVQAGGSLRLSCAASGRIIGHNAMGWYRQAPGKERELVAAISSRGGSTFYADSVKGRFTISRDNAKNTVYLQKNSLKPEDTAVYYCNALGVGHSGFTKFSRYYYWGQGTQVTVSS”: the “polyreactivity (PSR sort gate)” value is “high polyreactivity”.

As for “QVQLVESGGGLVQAGGSLRLSCAASGRIIGKNVMGWYRQAPGKERELVAAISKSGGSTYYADSVKGRFTISRDNAKNTVYLQMNSLKPEDTAVYYCAAKYYYHWHRQGYDYWGQGTQVTVSS”, the “polyreactivity (PSR sort gate)” value is recorded as “high polyreactivity”.

In the case of “QVQLVESGGGLVQAGGSLRLSCAASGRIIGKYDMGWYRQAPGTERELVAAIRYNGGRTYYADSVKGRFTISRDNAKNTVYLQMNRLKPEDNAVYYCATRTYRVDPEFGYWGQGTEVTVSS”, the “polyreactivity (PSR sort gate)” value is “high polyreactivity”.

Take “QVQLVESGGGLVQAGGSLRLSCAASGRIIGLYAMGWYRQAPGKEMELVAAISSAGSTYYADSVKGRFTISRDNAKNTVYLQMNSLKTEDTAVYYCDKSRYRGYDYWGQGTQVTVSS”: the “polyreactivity (PSR sort gate)” value is “low polyreactivity”.

In the case of “QVQLVESGGGLVQAGGSLRLSCAASGRIIGNYAMGWYRQAPGKERELVAAISNGGSTNYADSVKGRFTISRDNAKNTVYLQMNSLKPEDTAVYYCNADQWAVIWGYMVLDFYYWGQGTQVTVSS”, the “polyreactivity (PSR sort gate)” value is reported as “low polyreactivity”.

For the sequence “QVQLVESGGGLVQAGGSLRLSCAASGRIIGRYAMGWYRQAPGKEREFVAAISGSGGSTYYADSVKGRFTISRDNAKNTVYLQMNSLKPEDTAVYYCNALSVPDYDYWGQGTQVTVSS”, the “polyreactivity (PSR sort gate)” value was “high polyreactivity”.

Consider “QVQLVESGGGLVQAGGSLRLSCAASGRIIGYYAMGWYRQAPGKERELVAGIDWSGGNTYYADSVKGRFTISRDNAKNTVYLQMNSLKPEDTAVYYCNTEGGRDTAWYDYWGQGTQVTVSS”, for which the “polyreactivity (PSR sort gate)” value is recorded as “low polyreactivity”.

Take “QVQLVESGGGLVQAGGSLRLSCAASGRIIIYKAMGWYRQAPGKERQLVAAINRSGVSTHYADSVKGRFTISRDNAKNTVYLQMNSLKPEDTAVYYCARTVYGARSYDYWGQGTQVTVSS”: the “polyreactivity (PSR sort gate)” value is reported as “low polyreactivity”.

As for “QVQLVESGGGLVQAGGSLRLSCAASGRIIKFYAMGWYRQAPGKERELVARISRSGGRTYYADSVKGRFTISRDNAKNTVYLQMNSLKPEDTAVYYCAADTQSVATYDYWGQGTQVTVSS”, the “polyreactivity (PSR sort gate)” value is listed as “low polyreactivity”.

Regarding “QVQLVESGGGLVQAGGSLRLSCAASGRIINSNAMGWYRQAPGKERELVAAISTTGGRTYYADSVKGRFTISRDNAKNTVYLQMNSLKPEDTAVYYCNRLYRYLVWPAGEYDYWGQGTQVTVSS”, the “polyreactivity (PSR sort gate)” value is given as “high polyreactivity”.

“QVQLVESGGGLVQAGGSLRLSCAASGRIIPYYAMGWYRQAPGKERELVASTNYADSVKGRFTISRDNAKNTVYLQMNSLKPEDTAVYYCAADGYRYSVYLIRNPMDYWGQGTQVTVSS”: the “polyreactivity (PSR sort gate)” value is listed as “low polyreactivity”.

For “QVQLVESGGGLVQAGGSLRLSCAASGRIIRAYDMGWYRQAPGKERELVAVIRYRGGTTYYADSVKGRFTISRDNAMNTVYLQMYSLKPEDTAVYYCATEDNYHWWYTGVSYGEHDYLGQGTQVTVSS”, the “polyreactivity (PSR sort gate)” value is recorded as “low polyreactivity”.

In the case of “QVQLVESGGGLVQAGGSLRLSCAASGRIIRSNVMGWYRQAPGKERDLVAGISRSGGSTYYADSVKGRFTISRDNAKNTVYLKMNSLKPEDTAVYYCNAGWWYLGSPFDRDYWGQGTQVTVSS”, the “polyreactivity (PSR sort gate)” value was “high polyreactivity”.

Take “QVQLVESGGGLVQAGGSLRLSCAASGRIISHYAMGWYRQAPGKDRELVAAISRSGVSTYYADSVKGRFTISRDNAKNTVYLQMNSLKPEDTAVYYCNRRYDRGPYDYWGQGTQVTVSS”: the “polyreactivity (PSR sort gate)” value is “low polyreactivity”.

Turning to “QVQLVESGGGLVQAGGSLRLSCAASGRIITGYAMGWYRQAPGKERELVAAISRGGSTNYADSVKGRFTISRDNAKNTVYLQMNSLKPEDTAVYYCAAGVHWDRGDYWGQGTQVTVSS”, the “polyreactivity (PSR sort gate)” value is “low polyreactivity”.

Consider “QVQLVESGGGLVQAGGSLRLSCAASGRIITYNAMGWYRQAPGKERELVAAISTTGGRTYYADSVKGRFTISRDNAKNTVYLQMNSLKPEDTAVYYCNAVLKRPLAYHVTYDYWGQGTQVTVSS”, for which the “polyreactivity (PSR sort gate)” value is recorded as “high polyreactivity”.

For the sequence “QVQLVESGGGLVQAGGSLRLSCAASGRIIYGYAMGWYRQAHGKERELVASITATYYADSVKGRFTISLDNSKNTVYLQMNSLIPEDTAVYYCNAYLSPKHPLSRPDPTFEGGYRGQGTQVTVSS”, the “polyreactivity (PSR sort gate)” value was “low polyreactivity”.

As to “QVQLVESGGGLVQAGGSLRLSCAASGRIIYGYAMGWYRQAPGKERELVAAISASGGRTYYADSVKGRFTISRDHAKNTVYLQMNSLKPEDTAVYYCAADDVGPPDFYYWGQGTQVTVSS”, the “polyreactivity (PSR sort gate)” value is listed as “high polyreactivity”.

For the sequence “QVQLVESGGGLVQAGGSLRLSCAASGRIIYGYARGWYRQAPGKERELVAAISASGGRTYYADSVKGRFTISRDNAKNTVYLQMNSLKPEDTAVYYCARARFYWLTQWSYDYWGQGTQVTVSS”, the “polyreactivity (PSR sort gate)” value is listed as “high polyreactivity”.

Turning to “QVQLVESGGGLVQAGGSLRLSCAASGRILAPYVMGWYRQAPGKERELVAAISRSTGRTYYADSVKGRFTISRDNAKNTVYLQMNSLKPEDTAVYYCNRDVRVSLMGYWGQGTQVTVSS”, the “polyreactivity (PSR sort gate)” value is “high polyreactivity”.

Values taken from the nanobody polyreactivity screen of Harvey et al. (2022).
